Here are results for two molecules from publication PMC5098186, “Nuclear import of dimerized ribosomal protein Rps3 in complex with its chaperone Yar1” (Scientific Reports, 2016).

B1: His6-Rps3 (natural protein, S. cerevisiae, UniProt P05750 1-240, looked up)
chain: MVALISKKRKLVADGVFYAELNEFFTRELAEEGYSGVEVRVTPTKTEVIIRATRTQDVLGENGRRINELTLLVQKRFKYAPGTIVLYAERVQDRGLSAVAQAESMKFKLLNGLAIRRAAYGVVRYVMESGAKGCEVVVSGKLRAARAKAMKFADGFLIHSGQPVNDFIDTATRHVLMRQGVLGIKVKIMRDPAKSRTGPKALPDAVTIIEPKEEEPILAPSVKDYRPAEETEAQAEPVEA
notes: ribosomal protein Rps3 of S. cerevisiae, recombinant; also called wild-type Rps3 (of the His6-Rps3/Flag-Yar1 complex); source: E. coli BL21 (DE3) Rosetta Star, purified as His6-Rps3/Flag-Yar1 complex (Ni-NTA agarose); not shown: His6, N-terminal, kept

What all share (settings): both partners purified
Test [1] concerns the target T1, GST-Kap123 (S. cerevisiae, UniProt P40069 1-1113).
T1 construct: Kap123 (karyopherin β4) of S. cerevisiae, recombinant; also called GST-tagged Kap123; source: E. coli BL21 (DE3) Rosetta Star, immobilized on glutathione-agarose beads
T1 sequence (looked up): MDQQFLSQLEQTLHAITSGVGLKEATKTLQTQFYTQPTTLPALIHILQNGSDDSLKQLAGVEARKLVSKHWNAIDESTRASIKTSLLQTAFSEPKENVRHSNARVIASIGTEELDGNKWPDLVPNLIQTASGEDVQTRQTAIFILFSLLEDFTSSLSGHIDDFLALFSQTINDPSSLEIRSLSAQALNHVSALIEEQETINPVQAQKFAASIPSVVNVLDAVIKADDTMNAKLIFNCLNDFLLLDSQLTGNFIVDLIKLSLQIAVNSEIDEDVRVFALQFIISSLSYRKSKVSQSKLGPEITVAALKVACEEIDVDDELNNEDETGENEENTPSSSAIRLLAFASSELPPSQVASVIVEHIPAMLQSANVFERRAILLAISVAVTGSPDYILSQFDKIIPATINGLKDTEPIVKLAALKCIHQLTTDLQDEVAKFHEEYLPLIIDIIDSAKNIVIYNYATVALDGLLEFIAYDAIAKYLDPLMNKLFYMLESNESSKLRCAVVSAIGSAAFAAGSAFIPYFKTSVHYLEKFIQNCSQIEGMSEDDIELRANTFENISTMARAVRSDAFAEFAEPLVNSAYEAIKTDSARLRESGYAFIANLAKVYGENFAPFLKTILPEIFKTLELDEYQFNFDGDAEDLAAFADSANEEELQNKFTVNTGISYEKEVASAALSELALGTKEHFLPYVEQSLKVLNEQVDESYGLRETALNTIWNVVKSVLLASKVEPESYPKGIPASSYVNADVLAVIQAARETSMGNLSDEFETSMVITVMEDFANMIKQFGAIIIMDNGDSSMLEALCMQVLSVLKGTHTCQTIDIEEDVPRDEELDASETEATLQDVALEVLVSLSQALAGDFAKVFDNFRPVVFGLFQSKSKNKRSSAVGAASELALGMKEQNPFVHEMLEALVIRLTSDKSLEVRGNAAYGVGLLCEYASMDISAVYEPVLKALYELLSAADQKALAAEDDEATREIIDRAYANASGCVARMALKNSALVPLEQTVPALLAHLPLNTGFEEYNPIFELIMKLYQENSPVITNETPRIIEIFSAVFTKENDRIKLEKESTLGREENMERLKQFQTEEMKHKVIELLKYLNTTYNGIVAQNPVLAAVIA
The test is described as follows: pull-down; GST-tagged importins immobilized on glutathione-agarose beads, incubated with purified His6-Rps3/Flag-Yar1 complex or purified Flag-Yar1; 50 mM Tris pH 7.5, 150 mM NaCl, 1 mM DTT; eluted by boiling (Fig. 2b, Supplementary Fig. S2) or by TEV cleavage (Fig. 2c); Coomassie staining or Western blotting. Background: Immunoblotting shows a protein as a band on a membrane.

Test [2] concerns the target T2, GST-Kap60ΔIBB (S. cerevisiae, UniProt Q02821 81-542).
T2 construct: Kap60/Srp1 (importin α) of S. cerevisiae lacking the N-terminal IBB domain (80 amino acids); GST can be removed with TEV protease; also called GST-tagged Kap60ΔIBB; source: E. coli BL21 (DE3) Rosetta Star, immobilized on glutathione-agarose beads
T2 sequence (looked up): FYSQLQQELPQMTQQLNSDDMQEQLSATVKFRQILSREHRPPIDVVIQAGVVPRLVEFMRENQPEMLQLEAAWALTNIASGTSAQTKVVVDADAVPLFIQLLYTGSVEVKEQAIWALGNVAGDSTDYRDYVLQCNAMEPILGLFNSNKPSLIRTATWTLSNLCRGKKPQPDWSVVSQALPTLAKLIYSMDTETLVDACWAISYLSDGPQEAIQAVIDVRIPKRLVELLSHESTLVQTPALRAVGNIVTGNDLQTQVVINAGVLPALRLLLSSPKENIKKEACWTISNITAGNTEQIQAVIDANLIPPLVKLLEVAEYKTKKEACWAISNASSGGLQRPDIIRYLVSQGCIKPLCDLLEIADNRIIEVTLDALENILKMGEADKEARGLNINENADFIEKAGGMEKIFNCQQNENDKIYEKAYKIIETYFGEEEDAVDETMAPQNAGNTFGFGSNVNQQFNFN
Described as above.

Test [3] deals with T3, Kap60ΔIBB (S. cerevisiae, UniProt Q02821 81-542).
T3 construct: Kap60/Srp1 (importin α) of S. cerevisiae lacking the N-terminal IBB domain (80 amino acids); also called purified Kap60ΔIBB; purified Kap60; source: E. coli BL21 (DE3) Rosetta Star, purified (glutathione-agarose, eluted with TEV protease)
T3 sequence (looked up): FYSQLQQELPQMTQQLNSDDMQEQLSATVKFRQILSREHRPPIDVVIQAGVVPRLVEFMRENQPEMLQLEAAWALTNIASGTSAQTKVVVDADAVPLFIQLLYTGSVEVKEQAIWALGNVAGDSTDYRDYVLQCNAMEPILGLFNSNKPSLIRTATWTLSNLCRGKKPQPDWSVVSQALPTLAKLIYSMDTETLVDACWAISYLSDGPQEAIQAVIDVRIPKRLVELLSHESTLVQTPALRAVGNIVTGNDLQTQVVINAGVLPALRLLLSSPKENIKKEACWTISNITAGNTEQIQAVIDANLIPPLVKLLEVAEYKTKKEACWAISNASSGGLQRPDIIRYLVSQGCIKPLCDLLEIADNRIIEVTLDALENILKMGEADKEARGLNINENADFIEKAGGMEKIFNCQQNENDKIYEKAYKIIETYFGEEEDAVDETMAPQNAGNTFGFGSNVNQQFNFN
The test is described as follows: pull-down; His6-Rps3/Flag-Yar1 complex immobilized via His6-Rps3 on Ni-NTA agarose, incubated with increasing amounts of purified Kap60ΔIBB for 1 h at 4 °C; eluted with 300 mM imidazole (Ni-NTA eluate); Coomassie staining.

Test [4] has as its target B1. The test is described as above.

For B1, the binding result in test [1], in test [2] and in test [3] was “binds” in each case.

B2: Flag-Yar1 (natural protein, S. cerevisiae, UniProt P46683 1-200, looked up)
chain: MGLHSEPLDQEDQDTIILDARAGDLDSLKDIFTTLVSPELLSTCKESESDSTALHMAAANGHIETVRYILETVSRANSAEDLKAFVNEVNKTGNTALHWASLNGKLDVVKLLCDEYEADPFIRNKFGHDAIFEAENSGKEEVETYFLKKYDVEPEDDEEDTQTEGKNSVQITKGTEIEQVTKEATEALREETEKLNINKD
notes: Yar1, specific chaperone of Rps3, S. cerevisiae, recombinant
On to B2, for which the binding result in test [4] is “binds”.
